Molecular target: T1, Avi-FtsYNG (UniProt P10121 196-497)
T1 sequence: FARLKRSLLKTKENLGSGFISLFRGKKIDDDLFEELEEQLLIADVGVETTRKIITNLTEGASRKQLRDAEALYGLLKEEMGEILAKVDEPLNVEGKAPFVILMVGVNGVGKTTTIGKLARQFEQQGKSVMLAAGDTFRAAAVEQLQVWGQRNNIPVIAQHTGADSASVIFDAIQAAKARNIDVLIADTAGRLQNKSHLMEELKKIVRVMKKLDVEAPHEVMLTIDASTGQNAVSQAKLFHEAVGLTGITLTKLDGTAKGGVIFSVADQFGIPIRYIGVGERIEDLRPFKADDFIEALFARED
Assay: SPR; 10 C; RNA over immobilised protein; curve incomplete, fit fixed with GDP control; figure legend swaps panels with PNAtet; SPR: 20 mM HEPES pH 7.5, 150 mM NaCl, 3 mM MgCl2, 1 mM TCEP, 1% glycerol, 0.005% Tween, 10 C; MST: 50 mM HEPES pH 7.5, 100 mM NaCl, 1.5 mM MgCl2, 10% glycerol
Conditions: protein: recombinant; tags: Avi tag, biotinylated, immobilised on streptavidin; hairpin, 5 bp stem

B1: moRNAtet (structured_RNA)
RNA: GCGCCGGAAGGCGC
modifications: first and last two phosphodiester bonds replaced by phosphorothioate
B1 gave a Kd of 160 ± 20 µM.

— article PMC11404819, “Peptide nucleic acids can form hairpins and bind RNA-binding proteins”
